Data taken from article PMC11740656.
“And” between values parts separate entries of the source, which are not always exact repeats. Identical values can stand only once.

Biological target: human CLDN4 (YFP- or CFP-tagged) (human)
Test: FRET or BRET

“human CLDN8 (YFP- or CFP-tagged) (natural protein)” was tested, and the stoichiometry N (hCLDN8:hCLDN4) was 0.5 and 0.25.
